Measured values published in patent US9675625B2, “Medicament comprising recombinant antibody against chemokine receptor CCR4” (KYOWA HAKKO KIRIN CO., LTD., priority 2003, dated 2017).
Several values for one entry are separate records, joined by “and”; a condition that tells them apart may be missing. Equal entries are not always repeated.

Columns and labels:
[1] = tested on: CCR4/EL4 cells
Description: CCR4/EL4 cells (WO 01/64754) were suspended in RPMI 1640 medium (manufactured by Gibco BRL) at a concentration of 1×10^5 cells/mL, and 200 μL of the suspension was grafted into the peritoneal cavity of C57BL/6 mice (CLEA Japan Inc., male, 8 weeks old). After, mice was grouped into A to D, and each of the agents A to D was administered to each mouse. The day on which the tumor was grafted was defined as Day 0.
B. Group of administering M-CSF alone: 100 μg of M-CSF (Leucoprol, manufactured by Kyowa Hakko Kogyo Co., Ltd.) was intraperitoneally administered per mouse twice a day from Day-3 to Day-1 and once a day on Day 0, seven times in total.
The experiment was conducted with groups each consisting of 8 mice. […] The antitumor effect was evaluated by a ratio of average values of the number of survival days of mice in each group to an average value of the number of survival days of mice in the negative control group (hereinafter referred to as a life prolongation ratio).

[2] = tested on: CCRF-CEM cells; assay: antitumor effect of KM 2760 and Methotrexate in combination, CCRF-CEM cells grafted in nude mouse; format: in vivo, Balb/c nude mouse; settings: Day 7; KM 2760 800 μg per mouse Day 0 and Day 4; MTX 15 mg/kg Day 0 to Day 4; tail vein
Description: CCRF-CEM cells (human T cell leukemia cell line) were suspended in RPMI 1640 medium (Gibco BRL) at a concentration of 2×10^8 cells/mL, and 100 μL of the suspension was grafted into the ventral skin of Balb/c nude mice (CLEA Japan Inc. male). On Day 17 after the cell grafting, a diameter of a tumor was measured with calipers, and a tumor volume was calculated using formula 2 in Example 2.
Individuals having the tumor volume within the range of 121 to 348 mm^3 (on average 195 mm^3) were selected, and grouped such that the average tumor volume to be almost the same. Each of the following agents A to D was administered to the mice. Incidentally, the grouping day was defined as Day 0.
B. Group of administering KM 2760 alone: 800 μg of KM2760 was administered per mouse on Day 0 and Day 4.
C. Group of administering Methotrexate (hereinafter referred to as MTX; Methotrexate injection solution, Nippon Weisledary K.K.) alone: 15 mg/kg of MTX was administered per mouse for 5 days from Day 0 to Day 4. […]
The experiment was conducted with groups each consisting of five mice. […] On Day 7, the tumor volume was measured. The antitumor effect was evaluated by comparing average values of a tumor volume change (V/V0) when the tumor volume on Day 0 in each group was defined as V0.

[3] = tested on: CCRF-CEM cells; assay: antitumor effect of KM 2760 and cyclophosphamide in combination, CCRF-CEM cells grafted in nude mouse; format: in vivo, Balb/c nude mouse; settings: Day 4; KM 2760 800 μg per mouse Day 0 and Day 4; CPA 65 mg/kg Day 0; tail vein
Description: CCRF-CEM cells (human T cell leukemia cell line) were suspended in RPMI 1640 medium (Gibco BRL) at a concentration of 2×10^8 cells/mL, and 100 μL of the suspension was grafted intradermally in the right flank of Balb/c nude mice (Nippon Crea, male). On Day 18 after the cell grafting, a diameter of a tumor was measured with calipers, and a tumor volume was calculated using formula 2 in Example 2.
Individuals having the tumor volume within the range of 116 to 349 mm^3 (on average 219 mm^3) were selected, and grouped such that the average tumor volume to be almost the same. Each of the following agent A to D was administered to the mice. Incidentally, the grouping day was defined as Day 0.
The experiment was conducted with groups each consisting of five mice. Each of the agents was diluted with a physiological saline (Otsuka Seiyaku), and the diluent was administered from the tail vein. On Day 4, the tumor volume was measured. The antitumor effect was evaluated by comparing an average values of a tumor volume change (V/V0) on each measurement day when the tumor volume on Day 0 in each group was defined as V0.

[4] = tested on: CCR4/EL4 cells; assay: antitumor effect of KM 2760 and IFN-α in combination, CCR4/EL4 cells grafted into tail vein of C57BL/6 mice, liver weight ratio; format: in vivo, C57BL/6 mouse
Description: CCR4/EL4 cells were suspended in RPMI 1640 medium (manufactured by Gibco BRL) at a concentration of 5×10^5 cells/mL, and 100 μl of the suspension was grafted into the tail vein of C57BL/6 mice (CLEA Japan Inc., male, 8 weeks old). Further, mice were grouped into A to D, and each of the agents A to D were administered to the mice. Incidentally, the day on which the tumor was grafted was defined as Day 0.
B. Group of administering IFN-α alone: 5×10^4 units of IFN-α (Universal type I interferon, manufactured by PBL Biomedical Laboratories) was intravenously administered per mouse once a day for 5 days from Day 1 to Day 5.
The experiment was conducted with group A consisting of 7 mice and groups B, C and D each consisting of 6 mice. […] The weight of all mice was measured on Day 14. After etherization and exsanguination, mice were brought to euthanasia by dislocation of the cervical spine. The liver was extracted, and the weight of the liver was then measured. A ratio of the liver weight to the weight of each individual (hereinafter referred to as a weight ration of a liver) was calculated by percentage.
The antitumor effect was evaluated by comparing the liver weight ratio (average value of six mice) of untreated healthy mice measured simultaneously and the liver weight ratio of each group increased by metastasis of tumor cells.
Further, the residual amount of tumor cells in the liver in each group was calculated as a T/C value using the following formula. T/C=(average values of a weight ration of a liver of each group−average value of a weight ration of a liver of an untreated mouse)/(average value of a weight ration of a liver of a negative control group−average value of a weight ration of a liver of an untreated mouse) (Formula 4)

[5] = tested on: CCR4/EL4 cells; assay: antitumor effect of KM 2760 and G-CSF in combination, CCR4/EL4 cells grafted into ventral skin of C57BL/6 mice; format: in vivo, C57BL/6 mouse
Description: CCR4/EL4 cells (WO 01/64754) were suspended, in RPMI 1640 medium (Gibco BRL) at a concentration of 1×10^6 cells/mL, and 100 μL of the suspension was grafted into the right ventral skin of C57BL/6 mice (Nippon Crea, male, 8 weeks old). After, mice were grouped into A to D, each of the agents A to D were administered to each mouse. Incidentally, the day on which the tumor was grafted was defined as Day 0.
B. Group of administering KM 2760 alone: 100 μg of KM2760 was intravenously administered per mouse on Day 0 and Day 4.
C. Group of administering G-CSF alone: 10 μg of G-CSF (Neuup Injection 100, manufactured by Kyowa Hakko Kogyo Co., Ltd.) was subcutaneously administered per mouse once a day for 10 days from 4 days before the tumor grafting (hereinafter referred to as Day-4) to Day 5.
The experiment was conducted with group A consisting of 10 mice and groups B, C and D each consisting of 7 mice. […] Each of the diluent was administered at 100 μL. A diameter of a tumor was measured with calipers chronologically from Day 0 of each group. A tumor volume was calculated using formula 2 in Example 2.
Since the tumor death of the mouse was started in group A from Day 17 on, the evaluation of the tumor volume was finished on Day 14.
The antitumor effect (T/C value) in each group was evaluated by calculation using the following formula 3 for comparison between the average value of the tumor volume in group A and the average values of the tumor volume in each group on the final evaluation day (Day 14). (T/C value)=(average value of tumor volume in each group on Day 14)/average value of tumor volume in group A on Day 14) (Formula 3)

[6] = KM 2760 50 μg i.p. Day 0, M-CSF 100 μg i.p. seven times

B1: KM 2760: anti-CCR4 human chimeric antibody KM 2760 (FERM BP-7054, WO 01/64754) (antibody, V domains shown)
VH: EVQLVESGGDLMKPGGSLKISCAASGFIFSNYGMSWVRQTPDMRLEWVATISSASTYSYYPDSVKGRFTISRDNAENSLYLQMNSLRSEDTGIYYCGRHSDGNFAFGYWGRGTLVTVSA
VL: DVLMTQTPLSLPVSLGDQASISCRSSRNIVHINGDTYLEWYLQRPGQSPKLLIYKVSNRFSGVPDRFSGSGSGTDFTLKISRVEAEDLGVYYCFQGSLLPWTFGGGTRLEIRR
[1]; 8 mice per group, KM 2760 50 μg per mouse i.p. Day 0, M-CSF 100 μg per mouse i.p. seven times Day-3 to Day 0, observation to Day 50
  Number of survival days (each mouse): 19 days and 21 days (3×) and 22 days and 24 days and 26 days and 27 days
[1]; [6]
  Average number of survival days: 22.9 days
  Life prolongation ratio (average survival days of group / negative control group): 1.19
[1]; Table 7
  antitumor effect in comparison with untreated Group A (survival): low
[2]
  T/C (V/V0 of group divided by V/V0 of negative control group): 0.65
[3]
  T/C (V/V0 of group divided by V/V0 of negative control group): 0.80
[4]; Day 14, KM 2760 0.5 μg per mouse i.v. Day 1 and Day 5, IFN-α 5×10^4 units per mouse i.v. Day 1 to Day 5
  T/C value (residual amount of tumor cells in the liver, from liver weight ratio): 0.52
[4]; FIG. 7, Day 14
  antitumor effect compared to untreated group A (liver weight ratio): low
[5]; Day 14, KM 2760 100 μg per mouse i.v. Day 0 and Day 4, G-CSF 10 μg per mouse s.c. once a day Day-4 to Day 5
  T/C value (average tumor volume of group / group A): 0.48
[5]; FIG. 6, up to Day 14
  antitumor effect compared to untreated group A (tumor volume): low
